From PMC6332214, “A 7-Deazaadenosylaziridine Cofactor for Sequence-Specific Labeling of DNA by the DNA Cytosine-C5 Methyltransferase M.HhaI” come the findings set out here.

The series concerns the target T1, M.HhaI (DNA cytosine-C5 methyltransferase) (Haemophilus haemolyticus, UniProt P05102 1-327).
T1 sequence: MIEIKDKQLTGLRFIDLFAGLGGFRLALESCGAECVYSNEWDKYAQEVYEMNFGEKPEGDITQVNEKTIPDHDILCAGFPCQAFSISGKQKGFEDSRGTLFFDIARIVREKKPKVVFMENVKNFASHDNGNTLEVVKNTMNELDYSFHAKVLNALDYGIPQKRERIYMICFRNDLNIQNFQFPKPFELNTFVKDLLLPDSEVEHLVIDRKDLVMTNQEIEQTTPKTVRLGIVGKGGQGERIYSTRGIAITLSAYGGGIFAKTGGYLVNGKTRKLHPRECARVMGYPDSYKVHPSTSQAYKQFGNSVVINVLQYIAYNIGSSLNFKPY
Kind of series: anion-exchange HPLC; complex of M.HhaI with coupling product; 80 uM cofactor 5, 10 uM duplex, 11 uM M.HhaI, 37 C 3 h; stable to chromatography, released at 65 C; 10 mM Tris-HCl pH 7.4, 50 mM NaCl, 0.05 mM EDTA, 2 mM beta-mercaptoethanol, 37 C; anion-exchange HPLC (Poros 10 HQ) in KCl gradient 0.2-1 M. The following applies: label: biotin (via cofactor 5); blunt.

B1: duplex ODN I5·II (coupling product with aziridine cofactor 5) (dsDNA)
DNA 1: TGTCAGCGCATGA
DNA 2: TCATGCGCTGACA
modifications: target C (position 7 of strand I) alkylated with 7-deazaadenosylaziridine-biotin cofactor 5; 5-methyl-dC at position 6 of strand II
With B1, the binding result is “binds”.
